Laboratory results taken from paper PMC10766989, “The juxtamembrane linker of synaptotagmin 1 regulates Ca^2+ binding via liquid-liquid phase separation” (Nature Communications, 2024).

Target: the molecule itself
Experiment: dynamic light scattering; protein in solution, 10 µM, 25 mM Tris pH 7.4, 3% PEG 8000, NaCl as indicated (lower ionic strength); diameters modelled as Rayleigh spheres; monomers against higher ordered structures

B1: GFP-syt1 (80–142) (domain or fragment, UniProt P21707 80-142, looked up)
chain: KKCLFKKKNKKKGKEKGGKNAINMKDVKDLGKTMKDQALKDDDAETGLTDGEEKEEPKEEEKL
notes: synaptotagmin 1 (syt1), juxtamembrane linker, residues 80–142; also called GFP-tagged juxtamembrane linker (80–142); isolated juxtamembrane linker (residues 80–142); source: E. coli BL21(DE3), purified (Ni-NTA, eluted with 200 mM imidazole, dialysed); not shown: msGFP (no linker), N-terminal, kept
B1: binds.
